Experimental data published in patent publication US20230226096A1 (Orna Therapeutics, Inc., priority 2020, published 2023).

B1: Parabovirus C (nucleic acid)
DNA: GATGTATCCCCATCCCCCAGTGTGTATGCCATACTGCATAGCTCGCCTATGCCCTATGGATTCACAACCCTTTCATATACCCTCCCTACCCAACCCCGTAACCACATGCTTTACTCCGCTTGGGGTTTTGCGGCCCCATGTTGTGACGAAATGGCTACGCAATCAATGCGGCTAATGGGGCCTGCCGCTTTTAAGTGGCCCCAGTTAGAAGTTTATGCACACCCGCCCATTAGGAGGCCACCAGCCAGGTGGTCAGAGGGCAAGCACTTCTGTTTCCCCGGTGAAGTTTGATAAGCTGTGCCCACGGCTGAAGCAGACAGATCCGTTACCCGCCTCACTACTACGAGACGGCTAGTAGTGTGTAATATCCGAATTTCATTGATCCGGGTGTTCCCCCCACCCAGAAACGTGTGATGAGGAGCGGCACCCCTCCTATGGCAACATAGGGCCTCTCCTGCGCTGGCACACGGGCTCTATGAGCATGAAATCAGGAGAAAGTCACACGAAGACCTTATTGTGCTAGTGTTGATTCCTCCGCCCCCCTGAATGCGGCTAATCCCAACTCCGGAGCGCCCGCTGGCAAACCCGCCAGAAGAGCGTCGTAATGCGTAAGTCTGGAGCGGAACCGACTACTTTGGGTGTGGCGTGTTTCCTTTATTTCCTTTGTATTTGTAT
modifications: Parabovirus C
B2: Parabovirus B (nucleic acid)
DNA: AACCCATAATCCATTGTCCATCAATGTTTTATGGGGGGGACCCTTTCTCCCCTCCCCCTCCAAATACCTTTTACCCCTCTGTAACCAAGAGTGTGCAAAATCTATTTACTAGCCCAGAATTGCGGCTTCTGGGGAGGTTTATTCCTCATGCCTAACAAGATGTTACGCAAACTCCGGGCTACGGCCCTGGGCTTTTGCCCTAAAGATTTAGAAGTTTACACTATCGTCCAACAGGAGGACAACAAACCAGTTGTTCTAAGGACAAGCACTTCTGTTTCCCCGGTGAGACTGGATAGACTGTACCCACGGTTGAAACTGGTTGATCCGTTACCCGACTCACTACTTCGAGAAGATTAGTAGGAAACTGTGAAACTGATTCCATTGATCCGGATACTTTCCCCGTATCCAGAAACTACTGATGAGGGTTGACTTCCCGACTACGGCGACGTAGTGTCATCCCTGCGCTGGCAGTAGGCCTCTTTGAGGATGGAAGATGTGGATCGGTAACCGAAGGTCCTATTGAGCTAGTGTTTATACCTCCGGCCTCCTGAATGCGGCTAATCCTAACCCATGATCTAGTGCTCACAAACCAGTGAGTAGCTAGTCGTAACGCGTAAGTCGTGGGCGGAACCGACTACTTTGGAGTGACCGTGTTTCCTATTTTACTTTTGTTTG
modifications: Parabovirus B
B3: Cadicivirus B (nucleic acid)
DNA: CACCAACCCTTGACCTGTAATGTCAGTGGACAGAGTGCTCCTCTGTTCCCGGTTACCGTGTTCCAGGACACGATTGTAATCCTGCGCCTCACCAGCGCTGCGTGCACGTCTGCATAAGGAAACGTGCCTTCCCCATGTCTCTATCAATTCTTTGGTGAGTGACCGCCCTAGTTGCTCATCCTATGGGATTCTTCTCTCATGGGTTCTTTGTGGCATGCGAATGTCACCTTAATTGGAGGTCTTTAATTAGATATCCTTTCTTCATCTTTGATATGAGTGTCGGAATTTGATTCCTAGTCTCTGCAAAACAACCCCACTTGATGAATTCAACTTTTCAACCGCACAAACATAATCAGGTTTTTAAATTGAATGTTTCTAAATTCTAAATTTAGTTTATTTAAGTAGTTTGCCATCTTGACTCGATGTAAAATTGTCATACAAGTCTTCTTTTCTTTTCTTTACACTTTGAAGTTTGCACTTAGCAGTCGTTCTGCACAGCTTTCGAGTTTTGTTTGATCGACATCGCAACTTCCACCCACCTCTCTTTTTCTAGTGTTGAATGCGGCTAATCCTAACCCGAGAGCAATAAACCCAGGTTTATTGTCGTAACGCGCAAGTCTTGGACGGAACCGACTATACACACACCTCTTTACCCTTTAGTACACCCTTGGTACG
modifications: Cadicivirus B
B4: Parabovirus A3 (nucleic acid, listed as Parabovirus sp.)
DNA: ACCGTTACGCACCACTCAGTTGGTGTTTGGTGGCACCAATGATGGAACAAAAGGCTACACCACTTGGGCTACGGCCCGCGCCACCTTGTGGCGCAAAGACATTAGAAGAATAGCATACCGCCCACTAGGGCCCTGCAGCCAGCAGGGTAACGGGCAAGCACTTCTGTCTCCCCGGTAGAACGGTATAGGCTGTACCCACGGCCGAAAACTGAACTATCGTTACCCGACTCCGTACTTCGCAAAGCTTAGTAGGAAACTGGAAAGTTCGAGTTATTGACCCGGAGTGTTCCCCCCACTCCAGAAACGCGTGATGAGGGTTGCCACCCCGACCATGGCGACATGGTGGGCATCCCTGCGCTGGCACGCGGCCTCTAAGAGGATAACTCGCTCCTACTGGTAACCGAAGAGCCCCGTGAGCTACGGTTTATTCCTCCGCCTCCCTGAATGCGGCTAATCCTAACCCATGAGCAGTTGCCATAGATCCATATGGTGGACTGTCGTAACGCGTAAGTTGTGGGCGGAACCGACTACTTTGGGATGGCGTGTTTCCTTGTTTTCTCCATTTGTTGTTGTATGGTGACAAGTTATAGATCTCGATCTATAGCGTTTCTTGAGAGATTTCCAAACATTTATTCAAGTCGTACAATTCTTGTGTTTAAGCAGTACAGTGTAAGG
B5: Felipivirus 127F (nucleic acid, listed as Felipivirus sp.)
DNA: GATGTCGGATGACGGCTGGCCACCGGGGAAAAACGGCAAATGTGCACCACCTCTGCAACCCACGCCGACCACGTTTAACCATGGCGTTAGTAGGAGTGGACCACTGCAGTGGGCTCTGGTGTGCGACAGTCAGTGGTAGAGTAGACAGTCCTGACTGGGCAATGGGACCGCGTTGCGTATCCCTAGGTGGCATCGAGATTCCTCTGCTACCCACCAGCGTGGACTCCTATGGGGGGGGCCCCATAGGCTAGGTCTATACTGCCTGATAGGGTCGCGGCTGGTCGACCACTGACTGTATAACCAGTTGTAACTCACT
B6: Boosepivirus A (nucleic acid)
DNA: TTGAAAGACCTCGGCATATATCGTTGTCACAACGGTATATGTCGAGATCTTTCTCCCCACCCCCTCCAATTCCCTTTTCCCCCTCTTGCAACTTAGAAGTTTGTACACACAGGGCAATAGGATACGTGATCCAGCCAGGACACGTGAGCTCAAGCACTTCTGTTTCCCCGTCCCCTTCACGTACTACGGGAATGTTAGTAATTTGTGTGCACTTTAGTAAGGTTGATCCGGGATTAACCCCAAATCCCAGAAACTGGTGATGAGCGTTACCACCCCCGCCGGGCGACCGGAAGGTTTCGCTGCGTTGGCACCAGGGCTTCGGCACCAGAAAAAGGTAAAGCAAATGAAGGCGCTACTGTGCTACGAGAAGTTTCCTCCAGGCCCCTGAATGCGGCTAATCCTAACCAGTGATCCACCGGTGCAAAACCATGTACTAGGTGGTCGTAACGCGCAAGTCGCTGGCGGAACCGACTACTTTGGGTGTCCTGTGTTTCCATATTTTATTTTATTCAATTTTATGGTGACAAGAGTAAAGAGATACAGATTTGCAGCC
modifications: Boosepivirus A
B7: Boosepivirus B (nucleic acid)
DNA: TTTTCTCCCCTCCCCCTCCAACTACCTTTTCCCCCTCTTGTAACGCTAGAAGTTTGTGCAAACCGCCTGTAGGGTACTGCAATCCAGCAGTGCATAGGCTAAGCTTTTCTTGTTACCCCACCCCACATTATACTGAGGAGGATTGTGAAATTGTGTTAGTATGGGTTAGTAGCGGTGACCCGGGTAACCCCAACCCAGAAACTCACGGATGAGATGAACAGGACCCCACATGGTAACGTGTGTGTTCGTCTGCCCCGCAAGGTGAGGCCGTGAGAGCTTTGCACGCGAAAACCTTGAAAACCCAAAAGTACCTTGAGCTCTTCGCTATTTTGTGTTTCCTCCAGGACCCTGAATGCGGCTAAACCTAACCCGCGATCCGCACGTAGCAACCCAGCTAGAGTGTGGTCGTAATGCGCAAGTTGCGGGCGGTACCGACTACTTTGGTGTTCCTGTGTTTCCTTTATTTTATTTTGAATTTTTATGGTGACAACAGCTAGAAAATAAGAGTGAAC
modifications: Boosepivirus B
B8: Phacovirus Pf-CHK1 (nucleic acid)
DNA: GTGTGTCATTTCTCCCCTCCCCCTCCCAAACCTTTTCCCCCTCTAATCGGATTGATTAACCCGGTTAAAGATGATTAATGGTTTGTGAGTTGATATGATGGCCCGGCATTGAATCCGGGAATTCTTAAGTAATGGAATTGCATCCAATATGAAAGTGAGTGTGGCAAGCTCACAAGTAGTACTTGGCTCTGCCCATTATTTGAGGACCAACTCTTCTTGACTACAATGTGTTTAAAGTAAACTGGACCACATTGTGTATCCAGACAACTCCATTTGATAATGTACGCTGGAAACGTTTTCAGTGCATAGGGTCCTAAAGTGGTGCTGAAATATTGCAAGCTCAATGGGATACTGAACGCTGAAAACCGCCGCTGTTATCATATGGGCCCCTAGTGGGTAAATGTTGGCTTTAGGCATATACTGCTTGGGAATGCAGTACTGGTTGTAGACAGGGTGATAGCCTACCGGCTGGCGTAGTTGAGTTGGTATAGCCAGTTGATTGCCAT
B9: HRVC3 QPM (nucleic acid, listed as Rhinovirus sp.)
DNA: TTAAAGCTGGATCATGGTTGTTCCCACCATGATTACCCACGCGGTGCAGTGGTCTTGTATTACGGTACATTTCCATACCAGTTTTATACACCCCACCCCGAAACTCATAGAAGTTTGTACACAATGACCAATAGGTGGTGGCCATCCAGGTCGCTAATGGTCAAGCACTTCTGTTTCCCCGGCACCCTTGTATACGCTTCACCCGAGGCGAAAAATGAGGTTGTCGTTATCCGCAAAGTGCCTACGAAAAGCCTAGTAACACTTTGAAAACCCATGGTTGGTCGCTCAGCTGTTTACCCAACAGTAGACCTGGCAGATGAGGCTAGACATTCCCCACCAGCGATGGTGGTCTAGCCTGCGTGGCTGCCTGCACACCCTGCCGGGTGTGAAGCCAGAAAGTGGACAAGGTGTGAAGAGCCTATTGTGCTCACTTTGAGTCCTCCGGCCCCTGAATGTGGCTAACCCTAACCCCGTAGCTGTTGCATGTAACCCAACATGTATGCAGTCGTAATGGGCAACTATGGGATGGGACCAACTACTTTGGGTGTCCGTGTTTCCTGTTTTACTTTTTCATTGCTTATGGTGACAATTGTATCTGATACACTTGTTACC

System: HEK293 cells
Type: cell-based, human
Conditions: luminescence from secreted Gluc in supernatant 24 hours after transfection of HEK293 cells; circular RNA encoding Gluc with the named IRES (UTR truncated to 675 nt)

Row | Molecule | Expression
1 | B1 | 1.83E+07
2 | B2 | 7.85E+06
3 | B3 | 2.10E+05
4 | B4 | 2.44E+08
5 | B5 | 8.92E+06
6 | B6 | 7.07E+07
7 | B7 | 1.17E+08
8 | B8 | 5.87E+06
9 | B9 | 1.64E+07
